B1: full-length mouse mesothelin protein (other)
chain: DAEQKACPPGKEPYKVDEDLIFYQNWELEACVDGTMLARQMDLVNEIPFTYEQLSIFKHKLDKTYPQGYPESLIQQLGHFFRYVSPEDIHQWNVTSPDTVKTLLKVSKGQKMNAQAIALVACYLRGGGQLDEDMVKALGDIPLSYLCDFSPQDLHSVPSSVMWLVGPQDLDKCSQRHLGLLYQKACSAFQNVSGLEYFEKIKTFLGGASVKDLRALSQHNVSMDIATFKRLQVDSLVGLSVAEVQKLLGPNIVDLKTEEDKSPVRDWLFRQHQKDLDRLGLGLQGGIPNGYLVLDFNVREAFS
notes: also called mMSLN; murine mesothelin
B2: full-length human mesothelin protein (other)
chain: EVEKTACPSGKKAPEIDESLIFYKKWELEACVDAALLATQMDRVNAIPFTYEQLDVLKHKLDELYPQGYPESVIQHLGYLFLKMSPEDIRKWNVTSLETLKALLEVNKGHEMSPQVATLIDRFVKGRGQLDKDTLDTLTAFYPGYLCSLSPEELSSVPPSSIWAVRPQDLDTCDPRQLDVLYPKARLAFQNMNGSEYFVKIQSFLGGAPTEDLKALSQQNVSMDLATFMKLRTDAVLPLTVAEVQKLLGPHVEGLKAEERHRPVRDWILRQRQDDLDTLGLGLQGGIPNGYLVLDLSMQEALS
notes: also called MSLN; full-length mesothelin

Key:
[1] = target: T1, SD1-human Fc fusion protein (human, UniProt P01857 104-330 = IgG part); experiment: direct ELISA, coated antigen
T1 construct: domain: CH2 and CH3 in the constant region of human IgG heavy chain gamma 1; also called SD1-hFc
T1 sequence (P01857 other isoform, or with tags, fused parts or gaps limits assumed): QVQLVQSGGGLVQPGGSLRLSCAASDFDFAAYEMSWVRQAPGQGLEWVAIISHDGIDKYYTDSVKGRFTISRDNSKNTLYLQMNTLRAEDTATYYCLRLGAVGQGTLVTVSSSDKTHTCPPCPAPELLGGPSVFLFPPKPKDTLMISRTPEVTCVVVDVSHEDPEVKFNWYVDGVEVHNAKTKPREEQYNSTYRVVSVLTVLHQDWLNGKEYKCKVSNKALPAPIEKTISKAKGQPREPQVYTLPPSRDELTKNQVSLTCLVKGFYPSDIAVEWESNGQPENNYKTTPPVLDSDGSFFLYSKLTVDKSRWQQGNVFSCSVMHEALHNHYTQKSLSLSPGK

[2] = target: T1, SD1-human Fc fusion protein; experiment: ELISA on coated human mesothelin protein (FIG. 3C)
[3] = target: T1, SD1-human Fc fusion protein; experiment: ELISA on coated human mesothelin protein, equilibrium constant by Prism / Scatchard

Row | Binder | binding result [1] | Kd [2] [nM] | Kd [3] [nM]
1 | B1 | no binding |  | 
2 | B2 |  | 13.6 | 13.6
